{
  "source": "the DeepSol protein solubility set",
  "data": [
    {"experiment": "soluble on expression in E. coli; label from the status in PepcDB or PDB records", "values": [
      {"sequence": "MGSDKIHHHHHHMKYLLLIPDGMADWEVEELDGRTPLEVAETENMDFLAKEGACGIAKTVPDGFEPGSDVANLTILGVDVRKHYTGRGPIEALARGVKGKLVFRCNLVKVEDGVMVDYSGGRISDEEARKVIEELNRAKPYDFVKFYAGKSYRNLLVINKDFRDDVKTFPPHDITGKEIDKHLPSGGELAELLKELMGWSAEILPEITDKANMIWPWGGGRMPSFPNFGQRYGLRGAMITEVDLLEGIARGMGMEVVQVEGITGYIDTNYRGLVRETARALEEHDFVVLHTEGIDEVGHEGDAELKVRAIELYDSKIVGKLLNKVDLDETRILLLPDHPTPVKVKTHVAEPVPFTLYGRGRDEVKVYTEKSCRRGKFGLVDGLRLMDLLIKK", "soluble on expression in E. coli": "not soluble"},
      {"sequence": "MGSDKIHHHHHHMLGENIYLQRTQIGMTQENLSDYLHLTKTTISKWENNQAKPDIDYLILMANLFDISLDDLVGYQKTLSDDQRNQLIKDLKIKANVLSERDFFQEVKELSKQFPNDFKTLLIMINMVLSNLTNLNDSEMKEWSLSTLNKIISKTVVESDLQTAIMFKTVVLFHNLEYDEVINLYQNSPYKLGEELLLANSFFAKVDVYRAKQVLQVEIYQQILLVCEYLLSLSTFEVEENKGDIFERLEHMIEAFQLNSLHPNTVIKCYYSLACHYSKSDDDKALGYLKQCFKSLKQLLQRFELHGDTFFYTIDDWLETIPTGIAPPTSQLQVIERVEDLFQNSQFKELSGHKEFQQMIQKLNDLKKDY", "soluble on expression in E. coli": "not soluble"},
      {"sequence": "MLSDITIHNLGVIPSASLELSEGLTVLTGETGAGKTMVVTGLRLLAGGRAEAQRVRSGSSQAVVEGRFLLDSVAPESAEMARAVVSAAGGALDENGEVIVSRTVSAHGRSRAHLGGRSVPAASLVEFSKEVLTIHGQNDQLRLLNSDRQRDALDRFSQKISALMTVYSEAYRAWKNLSKDLQERQASKRELAQEVDRLEFAIREISEVDPQPGEEADLLVQIARLQDVDDLRAQAVGALSVIDGAAGVEGYATCDSSDADAASDLIGQALSSVRVSSDPTLQGVSQQLEAVTSILMEVSAQLGGFLDELPADPQMLDKLLQRQQALKQLTRKYASDIDGVIKWKLKAEQKLESIDVSPEALDQLKKETALAERKMNDAGMALRAARIEAAQELSNAVTKELHGLAMPKAMFSVVVHPTEPQPSGFDEVEFCLAPNNATDPRPLASSASGGELSRVMLALEVILSAGQHGNTLVFDEVDAGVGGRAAVEIGRRLARLAQNNQVIVVTHLPQVAAYADTHLHVAKDVGESTVTSGVEKLSEQRRVEDLARMLAGLEDTDTGRAHAKELFEKAQAENRAFRV", "soluble on expression in E. coli": "not soluble"},
      {"sequence": "MGSDKIHHHHHHLQVEKNVVISEFIVNMEDVLYHRDNTDVNIAEKVAEQTASLAHYGVAHYVLTNATNQQDSDNLHIVQTDLFEHYPKLTLYFYRILMAFDFLQAHPEIEKAALTDAGDVKMLNYPFDAVEDGILYMGDETIFIYDTSILIGYDGPQFIKDFIWENGHLPILNLGIMVGTRETLIEYLGIMVKLITEAELSLAQGNDEAFLGTYKMAISNYVAYYYFKDRLVHGNQVSTIFHGEQMVSGAWFKHK", "soluble on expression in E. coli": "not soluble"},
      {"sequence": "EQKVYEQKTRQQVMLSAYQQKEKDIESILDMQKQNSKQRHDINNVLILISELIQDEKYSKALEVLDKYRTGYNNINVTEIVSNNIVLNYLLNRKINQCREAGIDMACYVLWNIAGVDDMDLYILLENLCDNAIEAAGQCEKPSIKLQIAEDNASMYIDIGNTTSGNVLNNNPHMNTTKKDKNMHGFGIMNIRDIIDKYNGTINYEQQGDNYLMCRCTLEKVCQ", "soluble on expression in E. coli": "not soluble"},
      {"sequence": "MFKNLIWLKEVDSTQERLKEWNVSYGTALVADRQTKGRGRLGRKWLSQEGGLYFSFLLNPKEFENLLQLPLVLGLSVSEALEEITEIPFSLKWPNDVYFQEKKVSGVLCELSKDKLIVGIGINVNQREIPEEIKDRATTLYEITGKDWDRKEVLLKVLKRISENLKKFKEKSFKEFKGKIESKMLYLGEEVKLLGEGKITGKLVGLSEKGGALILTEEGIKEILSGEFSLRRS", "soluble on expression in E. coli": "soluble"},
      {"sequence": "SEDGGWNTIESDPAVFTQLLEDLGVKDVKVEEVLQLDAAFLRSLEPVHGLIFLFKWLPDQGSEQELSFSQDVDLFFANQVIQNACGTQALLSVVFNAKDLELGSELAEFKEFTKDFDPQTRGLALSNSETIRSAHNSLSGLQHFSFEFDEKEKSDSFHFISYVPFQGRIYELDGLKKGPICRGSYTAERHWTDVAISEIEKRIERYGEGEIRFNLLAVVRDPLKIWQQELLSYQTALESCSLEVERMSISMQMKEIQTRMEDEKKRRESIRRESNRRRHNMLPFIFHLIKWLHENSDLSFT", "soluble on expression in E. coli": "soluble"},
      {"sequence": "GSLQDNSSYPDEPWRITEEQREYYVNQFRSLQPDPSSFISGSVAKNFFTKSKLSIPELSYIWELSDADCDGALTLPEFCAAFHLIVARKNGYPLPEGLPPTLQPEFIVTD", "soluble on expression in E. coli": "soluble"},
      {"sequence": "MSLAKRIKIDNASSKFRRQSQKREQKVIRCSVLIVCEGTKTEPNYFEAFAEKQQGVIVYDIEVKGLGRGTKDVVEKAIDLKNKNNYDRVWAVFDRDEFPAKDFNEAIAMGQKNSIEVAWSNEAFELWYLYHFQNVITGVSRKDYEEKISTAVNASPKYKSKKKYRYAKKDPNNYKIMTTYGSMESALRYAEAKHLEYADSRYANQNPCTTIYQLVRQLLGRDEKLNAELIARIGENEGHHHHHH", "soluble on expression in E. coli": "soluble"},
      {"sequence": "MNSDAEMNTEDGGSSPEEFGEADCFSEEEDEEIVLDTSDNDTSYAKEDKKSENEVLDNDLLEAEMNTTIADVQAVLQVDPGVCRILLHKYKWNKESLLERLYEHPDTIAFLIDAQVIPRQQEVIPAGDAECDICCSMDELSGLSCNHRACAECWQAYLTNKIVSDAQSEIECMAPNCKLLIEDEKVLAYIKDPTIIAKYRKMMVASYIEINALLKWCPGVDCGRTVKVSHGEPRLVVCTCGSRFCFSCGQDWHEPVNCRLLKLWMKKCNDDSETSNWINSNTKECPKCMATIEKNGGCNQITCKNTGCKFQFCWMCLGPWTVHANAWYKCNKFDDEASQTARTAQELYRANLTRYLFYYNRYMGHLQSLRLEGKLNKTVKAKMDQMQNLSMSWIDVQFLRKAVDVLSECRNTLMFTYIFAFYLKRDNNSMIFESNQKDLEMETEQLSGLLERDLENEDLLTLKQKVQDTFRYVEHRRKVLLDHCAEGTEQDIWQYNE", "soluble on expression in E. coli": "not soluble"},
      {"sequence": "MNRILLYVHFNKYNKISAHVYYQLEQMRSLFSKIVFISNSKVSHEDLKRLKNHCLIDEFLQRKNKGFDFSAWHDGLITMGFDKLEEFDSLTIMNDTCFGPIWEMAPYFENFEEKKAVDFWGITNNRGTKAFKEHVQSYFMTFKNQVIQNKVFQQFWQSIIEYENVQEVIQHYETQLTSILLNEGFSYQTVFDTRKAESSFMPHPDFSYYNPTAILKHHVPFIKVKAIDANQHIAPYLLNLIRETTNYPIDLIVSHMSQISLPDAKYLLSQKYLNCQRLAKQTCQKVAVHLHVFYVDLLDEFLTAFEDWNFHYDLFITTDSDIKRKEIKEILQRKGKTADIRVTGNRGRDIYPMLLLKDKLSQYDYIGHFHTKKSKEADFWAGESWRKELIDMLVKPADSILSAFETDDIGIIIADIPSFFRFNKIVNAWNEHLIAQEMMSLWRKMDVKKQIDFQAMDTFVMSYGTFVWFKYDALKSLFDLELTQNDIPSEPLPQNSILHAIERLLVYIAWGNSYDFRIVKNPYELTPFIDNKLLNLREDEGAHTYVNFNQMGGIKGALKYIIVGPAKAMKYIFLRLMEKLKLEHHHHHH", "soluble on expression in E. coli": "soluble"},
      {"sequence": "MGHHHHHHSHMLPVELVRHDVKKTDETSQVELMLQVDPDLFWFNGHFTGQPLLPGVAQLDWVMHYATTVLAQGWTFLSIENIKFQQPILPGKTLRLVLIWHAGKQSLTFSYSILEGDTERTASSGKIKLTPIMEDNPCQ", "soluble on expression in E. coli": "soluble"},
      {"sequence": "MSLSLENFGNFLTLDEKHSFIKKYFKEFYTKDFKLFASKDKHYRTRAELSFYHENDTLFYAMFDPKSKKKYIIEYLDFADEKICAFMPRLLEYLRQDNKLKEKLFGVEFLTTKQELSITLLYHKNIEDIKSNLENLSNILHINLIARSKGKKLIFKTENLRQTLNIQDRKIFYEFNNDCFIQPNTAINEKMITWVCEILNTQKRMDLLELYCGYGNFTLALAPFFFKILATEISKSNINFALKNCELNNTTNIHFARLSSEELSLAIKKEREFFRLKDIRLDDFNFSHVLVDPPRAGLDKSVIDLIKKYGNIIYISCNPMTLKENLKELSLTHRVEEFALFDQFVNTPHLECGVFLSKVEGHHHHHH", "soluble on expression in E. coli": "soluble"},
      {"sequence": "MSLSVRVDYALVGRELEAREAVCLVFDGSDGRLSSISSSSSCPESSPKFTIAVPPSVNAHIHSSDVQWPEVGNDLSLEELVAPPRGLKHLLLQQAGERACAEAAVGVYRALGRMVVRAAADFREPAAGGCLPVREILATLGGLYTRVVLMGRPGDPYGLEGCDGIGLNSPLDVDPKRMRLLKKSGMRIHAHVAETREMRLEGDLEAALDIGVDTVIHGTHLSREDLELLREHGVTLVLSPRSNMWHGVGLPPVAEAYRVGVKIAFGTDNAAWNMLDPWDEARQAMLVARLQGVKDPGLPHYILKGLLSWGYEALGMEPPALAEGADMCSVALMRLEGYEAGLFRRSFSRYYTLLKIARGDLLQPVCTISGGLLEPAEGHHHHHH", "soluble on expression in E. coli": "soluble"},
      {"sequence": "MGSDKIHHHHHHMTPADNEIAEQQNFVDFNSILYTPQYAAGCFGLTTRRLMAIEEEHGLDIKRIKRGSSTSRVYTASDLFNIAALRRSLGHLKPIGRQIVASTFVPKGGTAKTTTAVNLAISAQFAGIKTLIIDNDPQGDTSNMLGYDPDLSPDDLVDMNIPSDRLVDGHFGNLLSPLLRMKPFSEKVLADVIKKPFGENGIHLIPADTYLEDLAVALDASNNSDMWYARFIEDANAGKVPGCDLSVYDLIIIDNAPAGSRLTKNSVAASDLLLCPVRMDKFSFRALLRLHEWCARFAKEYSYAPALMAIPTMFIRKRARLLANLQSLNTLFPGQVTEEKIYFSEDYSKSLDDGIPLMLWKRANSQTIDTARLVFGEILQKIRSLAA", "soluble on expression in E. coli": "not soluble"},
      {"sequence": "MLWKEYEEASSLTARVVKHLDKFDMIVQADKYEKTHEIDLQQFFTSTVGVLKMEPFATWDRELRENRMKRINKAE", "soluble on expression in E. coli": "not soluble"},
      {"sequence": "MSKIRVHEYAKKHNISSKDLMTKLKEMNIEVSNHMTMLDDEVVNKLDNEYQAEKPSVADEFEVEEKVVRSKKNSNKKKKKGKGNEDKRQENFAGRQQTQTVETPDKITFSGSLTVGDLAKKLSKEPSEIIKKLFMLGIMATINQDLDKDTIELIANDYGIEVEEEVIVSETEFETFIDEQDDEENLKERPAVVTIMGHVDHGKTTLLDSIRNSKVTAGEAGGITQHIGAYQVELNDKKITFLDTPGHAAFTTMRARGAQVTDITIIVVAADDGVMPQTVEAINHAKAAGVPIIVAVNKMDKPAANPDRVMQELTEYELVPEAWGGDTIFVPISAIQGEGIDNLLEMILLISEVEEYKANPNRYATGTVIEAQLDKGKGTIATLLVQNGTLRVGDPIVVGTSFGRVRAMVSDIGRRVKVAGPSTPVEITGLNEVPQAGDRFMAFADEKKARQIGESRAQEALLAQRGEKSKLSLEDLFQQIQEGDVKEINLIVKADVQGSVEAMAASLRKIDVEGVKVKIIHTGVGAITESDIILASASNAIVIGFNVRPDVNAKRTAELENVDIRLHRIIYKVIEEIEAAMQGMLDPEFEEKVIGQAEVRQTFKVTKVGTIAGCYVTDGKITRDSGVRIIRDGVVIFEGQLDTLKRFKDDVKEVAQNYECGITIERYNDLKEGDIIEAYIMEEVKR", "soluble on expression in E. coli": "not soluble"},
      {"sequence": "MGSDKIHHHHHHMFEPFPGNYVWNLGINLALIAGGNHGELDEVCRPVREAAKAGADAGSALLFDSWIAVADQVTRNAERDEAEGFLLSAGAKYLRASGYYLGAERLQSRDYAPRWVAYDKGLELYHKGSALSGLHVDKVEIPYEGSSYPAIFVHDGSGTPRPTLVSVNGLDSMKEQVNMAGHGAVNLARGMNTLFLDQPGTGEAIRKRNLPAVFDAERWGSPAFDYLLTRSDVIHSQIGIFGLSFGGYHAPRIAANDPRYALCAVMGANHVWGQRQRERVANEGENPVPHYWDHVMWVFGIDDQAAFLEYADQITLDGQVEKIRVPFLITHGENDRQIPAYNAQMSYDQAVNSPKRTLRIFTRADFEVEHCGADNGTGMRDYIADWCAQTFAEMAGNKG", "soluble on expression in E. coli": "not soluble"}
    ]}
  ]
}
